These results are taken from patent publication US20080125498A1, “TREATMENT OF NEURODEGENERATIVE DISEASES AND CONDITIONS USING PAR1 ANTAGONISTS” (priority 2001, published 2008).

The assay deals with PAR1. Put plainly: PI hydrolysis in hippocampal slices. Type of assay: cell-based, mouse. An excerpt:
PAR1 is a seven transmembrane G-protein coupled receptor that stimulates G-alpha-q to initiate phosphatidyl inositol (PI) hydrolysis. To ensure that PAR1 is functional in regions of the brain that are subject to ischemic damage in the mouse transient focal ischemia model, we tested the ability of several activators of PAR1 to initiate PI hydrolysis (Chung et al., 1997) in the hippocampus and striatum.
Since tPA activates plasminogen to form plasmin, we tested whether exogenously applied tPA could activate endogenous plasminogen in brain slices to form plasmin and activate PAR1.

The mark [1] stands for this setting: wild type hippocampus / hippocampal slices.

B1: tPA: tissue plasminogen activator; activates plasminogen to form plasmin; thrombolytic agent (protein, UniProt P00750 36-562, looked up)
Tissue-type plasminogen …: SYQVICRDEKTQMIYQQHQSWLRPVLRSNRVEYCWCNSGRAQCHSVPVKSCSEPRCFNGGTCQQALYFSDFVCQCPEGFAGKCCEIDTRATCYEDQGISYRGTWSTAESGAECTNWNSSALAQKPYSGRRPDAIRLGLGNHNYCRNPDRDSKPWCYVFKAGKYSSEFCSTPACSEGNSDCYFGNGSAYRGTHSLTESGASCLPWNSMILIGKVYTAQNPSAQALGLGKHNYCRNPDGDAKPWCHVLKNRRLTWEYCDVPSCSTCGLRQYSQPQFRIKGGLFADIASHPWQAAIFAKHRRSPGERFLCGGILISSCWILSAAHCFQERFPPHHLTVILGRTYRVVPGEEEQKFEVEKYIVHKEFDDDTYDNDIALLQLKSDSSRCAQESSVVRTVCLPPADLQLPDWTECELSGYGKHEALSPFYSERLKEAHVRLYPSSRCTSQHLLNRTVTDNMLCAGDTRSGGPQANLHDACQGDSGGPLVCLNDGRMTLVGIISWGLGCGQKDVPGVYTKVTNYLDWIRDNMRP
Regarding B1, the PI hydrolysis result is recorded as “did not increase PI hydrolysis” (plasminogen-deficient mice) and “significantly increased PI hydrolysis” under setting [1].

B2: alpha-2-antiplasmin: plasmin inhibitor (protein, UniProt P08697 40-491, looked up)
Alpha-2-antiplasmin: NQEQVSPLTLLKLGNQEPGGQTALKSPPGVCSRDPTPEQTHRLARAMMAFTADLFSLVAQTSTCPNLILSPLSVALALSHLALGAQNHTLQRLQQVLHAGSGPCLPHLLSRLCQDLGPGAFRLAARMYLQKGFPIKEDFLEQSEQLFGAKPVSLTGKQEDDLANINQWVKEATEGKIQEFLSGLPEDTVLLLLNAIHFQGFWRNKFDPSLTQRDSFHLDEQFTVPVEMMQARTYPLRWFLLEQPEIQVAHFPFKNNMSFVVLVPTHFEWNVSQVLANLSWDTLHPPLVWERPTKVRLPKLYLKHQMDLVATLSQLGLQELFQAPDLRGISEQSLVVSGVQHQSTLELSEVGVEAAAATSIAMSRMSLSSFSVNRPFLFFIFEDTTGLPLFVGSVRNPNPSAPRELKEQQDSPGNKDFLQSLKGFPRGDKLFGPDLKLVPPMEEDYPQFGSPK
On to B2, for which the “inhibition of tPA-induced increase in PI hydrolysis” value (wild type hippocampal slices) is “inhibited the tPA-induced increase in PI hydrolysis”.

B3: plasmin: serine protease involved in blood clotting that can activate PAR1 (protein, UniProt P00747 20-580; P00747 581-810, looked up)
Plasmin heavy chain A: EPLDDYVNTQGASLFSVTKKQLGAGSIEECAAKCEEDEEFTCRAFQYHSKEQQCVIMAENRKSSIIIRMRDVVLFEKKVYLSECKTGNGKNYRGTMSKTKNGITCQKWSSTSPHRPRFSPATHPSEGLEENYCRNPDNDPQGPWCYTTDPEKRYDYCDILECEEECMHCSGENYDGKISKTMSGLECQAWDSQSPHAHGYIPSKFPNKNLKKNYCRNPDRELRPWCFTTDPNKRWELCDIPRCTTPPPSSGPTYQCLKGTGENYRGNVAVTVSGHTCQHWSAQTPHTHNRTPENFPCKNLDENYCRNPDGKRAPWCHTTNSQVRWEYCKIPSCDSSPVSTEQLAPTAPPELTPVVQDCYHGDGQSYRGTSSTTTTGKKCQSWSSMTPHRHQKTPENYPNAGLTMNYCRNPDADKGPWCFTTDPSVRWEYCNLKKCSGTEASVVAPPPVVLLPDVETPSEEDCMFGNGKGYRGKRATTVTGTPCQDWAAQEPHRHSIFTPETNPRAGLEKNYCRNPDGDVGGPWCYTTNPRKLYDYCDVPQCAAPSFDCGKPQVEPKKCPGR
Plasmin light chain B: VVGGCVAHPHSWPWQVSLRTRFGMHFCGGTLISPEWVLTAAHCLEKSPRPSSYKVILGAHQEVNLEPHVQEIEVSRLFLEPTRKDIALLKLSSPAVITDKVIPACLPSPNYVVADRTECFITGWGETQGTFGAGLLKEAQLPVIENKVCNRYEFLNGRVQSTELCAGHLAGGTDSCQGDSGGPLVCFEKDKYILQGVTSWGLGCARPNKPGVYVRVSRFVTWIEGVMRNN
modifications: plasmin
On to B3, for which the PI hydrolysis result under setting [1] is “increased PI hydrolysis”.
